Tests used:
[1] = Stability testing of biopharmaceuticals under denaturing conditions; type: physicochemical; settings: after exposure to harsh denaturing conditions (low pH or heat)
Description: For this purpose, 5 mg/mL Glucagon (Glucagen; Novo Nordisk Farma B. V., Alphen aan de Rijn, The Netherlands) was incubated at 37° C. in 0.01 M HCl for 48 hours. One mg/mL Etanercept (Enbrel; Wyeth Pharmaceuticals B. V., Hoofddorp, The Netherlands) in 67 mM sodium phosphate buffer, 100 mM NaCl pH 7.0 was gradually heated from 30° C. to 85° C. over a period of 12 minutes and afterwards cooled to 4° C. for 5 minutes, this treatment was repeated 4 times. Abciximab (Reopro; Centocor B. V., Leiden, The Netherlands) and Infliximab (Remicade; Schering-Plough B. V., Utrecht, The Netherlands) were incubated at 65° C. for 16 and 72 hours, respectively.

sRAGE = biological target: T1, sRAGE (Homo sapiens, UniProt Q15109); experiment: Biacore surface plasmon resonance, binding to immobilized sRAGE; settings: Hb-AGE 32, albumin-AGE 3.9, amyloid γ-globulins 62.5 μg ml^−1
T1 construct: comprises three domains spanning amino-acid residues 23-325; His-tag (N); thrombin cleavage site (N); made in house; host or cells: 293E cells (printed as 'hamster embryonic kidney cells')
T1 sequence (Q15109 23-325): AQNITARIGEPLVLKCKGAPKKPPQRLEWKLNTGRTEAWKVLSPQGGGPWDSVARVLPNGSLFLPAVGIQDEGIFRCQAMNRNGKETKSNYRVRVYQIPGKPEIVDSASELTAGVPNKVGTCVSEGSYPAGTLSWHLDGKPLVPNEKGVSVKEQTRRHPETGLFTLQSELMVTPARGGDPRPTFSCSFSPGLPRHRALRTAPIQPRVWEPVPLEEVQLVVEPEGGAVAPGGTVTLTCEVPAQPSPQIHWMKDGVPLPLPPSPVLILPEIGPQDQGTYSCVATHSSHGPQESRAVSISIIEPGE
Description: (§1) Binding of cross-β structure containing peptides/proteins was studied using surface plasmon resonance technology with a Biacore 2000 apparatus (Biacore AB, Uppsala, Sweden). A standardized amine coupling procedure was used to couple proteins with F domains to a CM5 chip (Biacore AB, Uppsala, Sweden). First, the dextran surface of the chips was activated by a 35 μl injection with a 1:1 mixture of 0.1 M N-hydroxysuccinimide (NHS) and 0.4 M N-ethyl-N′-(dimethylaminopropyl)carbodiimide (EDC) at a flow rate of 5 μl min.^−1. Then, the proteins were covalently coupled to the activated dextran surface. Remaining activated groups in each of the four flow channels were blocked by injection of 35 μl of 1 M ethanolamine hydrochloride pH 8.5. EDC, NHS and ethanolamine hydrochloride were obtained from Biacore. On one chip, on channels 1 to 4, buffer (reference channel), the soluble extracellular part of receptor for advanced glycation endproducts (sRAGE), tPA and K2P-tPA were immobilized. […] Binding of albumin-AGE was determined with a solution of 3.9 μg ml^−1 albumin-AGE in running buffer. albumin-AGE was filtered on a Millex-GV 0.22 μm filter unit (Millipore). […] Binding of Hb-AGE was also tested after centrifugation for 10 min. at 16,000*g alternative to filtration. tPA activation before and after filtration was assessed with a Plg-activation assay. […]

fibronectin F4,5 = biological target: T2, fibronectin F4,5 (Homo sapiens, UniProt P02751); experiment: Affinity determination ELISA, fibronectin F4,5 on coated (mis)folded proteins; type: binding; settings: coated protein as labelled
T2 construct: human fibronectin finger 4,5 (Fn F4,5) fragment; made in house; host or cells: HEK293E
T2 sequence (P02751 182-276 limits assumed): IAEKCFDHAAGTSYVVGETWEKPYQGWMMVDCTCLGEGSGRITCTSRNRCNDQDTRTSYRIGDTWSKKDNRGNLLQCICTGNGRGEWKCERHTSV
Description: Synthetic genes of human BiP, human fibronectin finger 4,5 (Fn F4,5) fragment, and human tissue-type plasminogen activator finger EGF (tPA F-EGF) fragment were ordered from Geneart (Regensburg, Germany). These DNA constructs were digested using BamHI and NotI, and ligated into vector pABC674 (ABC-expression facility, Utrecht University, The Netherlands), which contains a carboxy-terminal FLAG-tag—His-tag. HEK293E cells were transiently transfected with these constructs using the polyethylene-imine method, and grown for 5-6 days.
Denatured proteins and their native controls BSA (Sigma, A7906), glycated BSA, Hb (Sigma, H7605), glycated Hb, ovalbumin (Sigma, A6741), heat-denatured misfolded ovalbumin, human γ-globulins (Sigma, G4386), heat-denatured misfolded γ-globulins, alkyl-γ-globulins, lysozyme (ICN Biochemicals, 100831) and alkyl-lysozyme were coated on ELISA plates (Greiner Microlon high-binding, 655092) in 50 mM NaHCO3-buffer pH 9.6. The plates were blocked using Blocking reagent (Roche 1112589). […] Bound protein is detected by the FLAG-tag using 1:3000 anti-FLAG-HRP (Sigma A-8592) in PBS-T, or by 1:1000 Ni-NTA-HRP (Qiagen 34530) in PBS-T. The HRP reaction Is performed using the TMB substrate (Biosource 4501103 or Tebu Bio 101TMB100-500), stopped using 10% H2SO4 and absorbance was measured at 450 nm.

tPA = tPA (Homo sapiens, UniProt P00750); experiment: Biacore surface plasmon resonance, binding to immobilized tPA; settings: Hb-AGE 32, albumin-AGE 3.9, amyloid γ-globulins 62.5 μg ml^−1
Chain of tPA (P00750 36-562): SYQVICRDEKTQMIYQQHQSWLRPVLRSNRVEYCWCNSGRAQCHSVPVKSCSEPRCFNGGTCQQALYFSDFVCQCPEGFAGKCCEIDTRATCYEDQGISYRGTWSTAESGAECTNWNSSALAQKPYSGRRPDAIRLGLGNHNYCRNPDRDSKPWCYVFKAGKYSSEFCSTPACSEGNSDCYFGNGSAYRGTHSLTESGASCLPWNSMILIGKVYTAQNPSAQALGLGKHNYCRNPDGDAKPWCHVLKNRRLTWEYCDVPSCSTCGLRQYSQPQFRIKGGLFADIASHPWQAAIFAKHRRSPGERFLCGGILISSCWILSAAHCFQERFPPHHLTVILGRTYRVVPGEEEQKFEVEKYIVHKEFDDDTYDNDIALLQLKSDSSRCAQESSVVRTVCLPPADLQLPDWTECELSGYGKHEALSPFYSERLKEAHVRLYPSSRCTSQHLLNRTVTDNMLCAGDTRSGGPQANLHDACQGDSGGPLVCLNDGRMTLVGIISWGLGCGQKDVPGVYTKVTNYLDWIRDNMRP
Description: as §1

platelets = experiment: Platelet aggregation assay with BSA-AGE spiked plasma before and after depletion; type: cell-based, human; settings: 512-fold diluted plasma spiked with 250 μg/ml, tenfold diluted
Description: Results are compared to platelet activating properties of the spiked plasma before depletion of BSA-AGE.
Freshly drawn human aspirin free blood was mixed gently with citrate buffer to avoid coagulation. Blood was spinned for 15′ at 150*g at 20° C. and supernatant was collected; platelet rich plasma (PRP) with an adjusted final platelet number of 200,000 platelets/μl. Platelets were kept at 37° C. for at least 30′, before use in the assays, to ensure that they were in the resting state. For the aggregometric assays, 270 μl platelet solution was added to a glass tube and prewarmed to 37° C. A stirring magnet was added and rotation was set to 900 rpm, and the apparatus (Whole-blood aggregometer, Chrono-log, Havertown, Pa., USA) was blanked. […] Aggregation was followed in time by measuring the absorbance of the solution, that will decrease in time upon platelet aggregation. As a positive control synthetic thrombin receptor activating peptide TRAP was used. Aggregation was recorded for 15′ and expressed as the percentage of the transmitted light (0-100%).

binding to immobilized sRAGE (sRAGE) | affinity for fibronectin F4,5 (fibronectin F4,5) | binding to immobilized tPA (tPA) | Substance | amyloid-like properties (ThT-fluorescence and tPA activation) [1] | platelet aggregation (platelets)
 |  |  | Abciximab: abciximab, an inhibitor of blood platelet aggregation (ReoPro, Centocor) | amyloid-like properties are adopted | 
bind | High affinities | bind | albumin-AGE: advanced glycation end-product modified bovine serum albumin |  | Platelets readily aggregate
